Laboratory results reported in patent publication US20180030136A1.

How the values were obtained:
human ICOS (human) = human ICOS (human) (UniProt Q9Y6W8); test: Biacore, human ICOS
[1] = target: cynomolgus ICOS (cynomolgus); test: Biacore, cyno ICOS

Chain of human ICOS (human) (Q9Y6W8 21-140 limits assumed): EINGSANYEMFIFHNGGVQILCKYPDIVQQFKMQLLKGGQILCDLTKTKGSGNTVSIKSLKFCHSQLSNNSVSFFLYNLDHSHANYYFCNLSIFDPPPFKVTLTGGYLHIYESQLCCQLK

Kd (human ICOS (human)): 17 nM
Kd [1]: 9.3 nM
B1: ICOS mAb clone 314.8 (antibody, from another filing, V domains shown)
VH: QVQLQQPGTELMKPGASVKLSCKASGYTFTTYWMHWVKQRPGQGLEWIGEIDPSDSYVNYNQNFKGKATLTVDKSSSTAYIQLSSLTSEDSAVYFCARSPDYYGTSLAWFDYWGQGTLVTVST
VL: DIVMTQAAPSVPVTPGESVSISCRSSKSPLHSNGNIYLYWFLQRPGQSPQLLIYRMSNLASGVPDRFSGSGSGTTFTLKISRVEAEDVGVYYCMQHLEYPYTFGGGTKLEIK
